EC50, koff and Kd data for ten molecules are collected here from paper PMC8556268 (Communications Biology, 2021).

Several values for one entry are separate records, joined by “and”; a condition that tells them apart may be missing. Equal entries are not always repeated.

What all share (details): both partners purified
For assay [1], the target named is T1, SARS-CoV-2 spike protein receptor-binding domain (RBD) (SARS-CoV-2, strain  …, UniProt P0DTC2).
T1 construct: also called SARS-CoV-2 RBD; SARS RBD; source: provided by Roland Strong, Fred Hutchinson Cancer Research Center
The assay can be described thus: ELISA.

Assay [2] addresses enzymatically biotinylated SARS-CoV-2 spike protein receptor-binding domain (RBD) (SARS-CoV-2, strain  …, UniProt P0DTC2).
The target in assay [3] is T2, SARS-CoV-2 spike protein receptor-binding domain (RBD), coated on ELISA plates (SARS-CoV-2, strain  …, UniProt P0DTC2).
T2 construct: also called SARS-CoV-2 RBD; SARS-CoV2 RBD; source: provided (Roland Strong, Fred Hutchinson Cancer Research Center)
Description: ELISA. For orientation: An ELISA detects its analyte on a solid surface through an enzyme-linked reagent.

Assay [4] concerns the target enzymatically biotinylated SARS-CoV-2 RBD, loaded on streptavidin biosensors (SARS-CoV-2, strain  …, UniProt P0DTC2).

By EC50 is commonly meant the concentration giving half of the maximal effect. A word on the koff: it is the rate constant with which the complex falls apart. Read a low koff as a long-lived complex. Broadly, the Kd is the constant that tells how readily two partners part at equilibrium. Low values mean higher affinity, high ones lower affinity.

B1: tcTRP9_(3)-VHH678_(3) (VHH)
VHH: QVQLQESGGGLVQAGGSLRLSCAASGRTFSEYAMGWFRQAPGKEREFVATISWSGGSTYYTRSVKGRFTISRDNAKNTVYLQMNSLKPDDTAVYYCAAAGLGTVVSEWDYDYDYWGQGTQVTVSS
notes: also called tcTRP9x3_VHH6783; construct 678; source: E. coli BL21(DE3)-RIL, purified (Ni-NTA, dialysis into 1x PBS)
Consider B1, for which, in assay [1], the EC50 came out at 2.06 nM.

B2: tcTRP9x3_VHH685_(3) (VHH)
VHH: B1 VHH
notes: also called construct 685; source: E. coli BL21(DE3)-RIL, purified (Ni-NTA, dialysis into 1x PBS)
B2 gave an EC50 in assay [1] of 1.88 nM.

B3: tcTRP9_(3)-VHH679_(3) (VHH)
VHH: B1 VHH
notes: also called tcTRP9x3_VHH6793; construct 679; source: E. coli BL21(DE3)-RIL, purified (Ni-NTA, dialysis into 1x PBS)
For the molecule B3, the EC50 in assay [1] came to 5.52 nM.

B4: tcTRP9_(3)-VHH680_(3) (VHH)
VHH: B1 VHH
notes: also called tcTRP9x3_VHH6803; construct 680; source: E. coli BL21(DE3)-RIL, purified (Ni-NTA, dialysis into 1x PBS)
Regarding B4, it took 8.01 nM to reach a half-maximal effect in assay [1] (EC50).

B5: tcTRP9_(3)-VHH684_(3) (VHH)
VHH: B1 VHH
notes: also called tcTRP9x3_VHH6843; construct 684; source: E. coli BL21(DE3)-RIL, purified (Ni-NTA, dialysis into 1x PBS)
For the molecule B5, in assay [1], a half-maximal response (EC50) required 1.89 nM.

B6: tcTRP9_(3)-VHH682_(3) (VHH)
VHH: B1 VHH
notes: also called tcTRP9x3_VHH6823; construct 682; source: E. coli BL21(DE3)-RIL, purified (Ni-NTA, dialysis into 1x PBS)
Regarding B6, the EC50 in assay [1] was found to be 4.65 nM.

B7: tcTRP9_(3)-VHH681_(3) (VHH)
VHH: B1 VHH
notes: also called tcTRP9x3_VHH6813; construct 681; source: E. coli BL21(DE3)-RIL, purified (Ni-NTA, dialysis into 1x PBS)
As for B7, the koff in assay [2] worked out at 3.98e-05 s⁻¹.

B8: tcTRP9_(3)-VHH681_(3) (trimeric tcTRP9_(3) with VHH 72D61R on each subunit, construct 681) (VHH)
VHH: B1 VHH
notes: also called tcTRP9_(3)-VHH3; tcTRP9x3-VHH3; source: E. coli, purified (Ni-NTA, dialysis into 1x PBS)
In the case of B8, the EC50 in assay [3] is 0.4 nM and ~0.64 nM. In assay [4], this molecule registered a Kd of about 0.43 nM.

B9: tcTRP9_(3)-VHH683_(3) (VHH)
VHH: B1 VHH
notes: also called tcTRP9x3_VHH6833; construct 683; source: E. coli BL21(DE3)-RIL, purified (Ni-NTA, dialysis into 1x PBS)
B9: the EC50 in assay [1] stood at 2.69 nM.

B10: tcTRP9_(3)-VHH3 construct 680 (trimeric tcTRP9_(3) with VHH 72D61R on each subunit) (VHH)
VHH: B1 VHH
notes: also called tcTRP9x3-VHH3; Trimeric VHH 72D61R; source: E. coli, purified (Ni-NTA, dialysis into 1x PBS)
For the molecule B10, the EC50 in assay [3] was found to be 12 nM.
